In publication PMC6326545 one finds EC50 of TRPV1 activation (two-electrode voltage clamp, oocytes), fold over wild-type DkTx (fold over wild-type DkTx) data, which are given here for 2 substances.

The target in this test is rat TRPV1 ion channel (rat) (UniProt O35433).
Sequence of UniProt O35433 (O35433 whole entry): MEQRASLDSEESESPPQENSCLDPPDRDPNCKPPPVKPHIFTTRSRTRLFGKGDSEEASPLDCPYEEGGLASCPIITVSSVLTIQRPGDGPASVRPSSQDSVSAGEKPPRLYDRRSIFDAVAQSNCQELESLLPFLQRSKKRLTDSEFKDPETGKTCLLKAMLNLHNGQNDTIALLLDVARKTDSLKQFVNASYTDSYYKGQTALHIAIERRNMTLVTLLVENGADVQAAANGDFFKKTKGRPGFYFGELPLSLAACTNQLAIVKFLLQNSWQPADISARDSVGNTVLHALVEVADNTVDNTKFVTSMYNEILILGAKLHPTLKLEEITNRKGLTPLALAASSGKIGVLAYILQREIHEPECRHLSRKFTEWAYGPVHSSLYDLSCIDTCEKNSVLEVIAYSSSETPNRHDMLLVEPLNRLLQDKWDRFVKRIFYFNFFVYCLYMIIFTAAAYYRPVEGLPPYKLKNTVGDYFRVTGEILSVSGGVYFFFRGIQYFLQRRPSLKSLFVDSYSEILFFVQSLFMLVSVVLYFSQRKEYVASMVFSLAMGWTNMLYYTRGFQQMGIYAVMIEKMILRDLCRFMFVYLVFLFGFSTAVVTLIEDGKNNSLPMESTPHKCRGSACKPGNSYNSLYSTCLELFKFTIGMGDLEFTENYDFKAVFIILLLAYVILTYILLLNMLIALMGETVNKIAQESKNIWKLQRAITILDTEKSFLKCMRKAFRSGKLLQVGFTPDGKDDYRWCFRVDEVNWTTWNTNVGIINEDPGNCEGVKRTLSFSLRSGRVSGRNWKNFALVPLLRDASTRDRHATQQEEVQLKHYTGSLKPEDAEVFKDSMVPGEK

DkTx E7A (natural protein) displayed an EC50 of TRPV1 activation (two-electrode voltage clamp, oocytes), fold over wild-type DkTx (fold over wild-type DkTx) of 11.

Substance DkTx V8A (natural protein) yielded an EC50 of TRPV1 activation (two-electrode voltage clamp, oocytes), fold over wild-type DkTx (fold over wild-type DkTx) of 16.
